In doi:10.1101/2022.06.15.496229:

Columns and labels:
[1] = target: DHR2 domain of human DOCK10 (DOCK10^DHR2, residues 1695-2151) (human) (UniProt Q96BY6); experiment: SEC-MALS
[2] = target: DHR2 domain of human DOCK10 (DOCK10^DHR2, residues 1695-2151) (human) (UniProt Q96BY6); experiment: ITC

Chain of DHR2 domain of human DOCK10 (DOCK10^DHR2, residues 1695-2151) (human) (Q96BY6 1695-2151): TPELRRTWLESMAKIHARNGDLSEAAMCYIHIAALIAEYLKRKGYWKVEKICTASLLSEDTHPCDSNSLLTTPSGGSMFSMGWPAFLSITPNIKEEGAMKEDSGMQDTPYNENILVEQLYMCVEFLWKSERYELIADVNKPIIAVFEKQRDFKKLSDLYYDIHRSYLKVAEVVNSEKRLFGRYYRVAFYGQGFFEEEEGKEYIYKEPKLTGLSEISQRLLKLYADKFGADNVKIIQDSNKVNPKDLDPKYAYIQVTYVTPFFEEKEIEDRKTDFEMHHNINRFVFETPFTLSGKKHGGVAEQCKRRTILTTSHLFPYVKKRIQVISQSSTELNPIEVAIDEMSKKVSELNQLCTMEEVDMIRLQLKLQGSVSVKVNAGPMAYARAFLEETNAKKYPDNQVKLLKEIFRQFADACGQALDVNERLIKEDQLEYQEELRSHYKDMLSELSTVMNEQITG

| stoichiometry N (DOCK10^DHR2 per RAC1) [1] | dH [2] [kJ/mol] | Substance |
| --- | --- | --- |
| 2 |  | RAC1 (residues 1-192) (from UniProt P63000 1-192) (natural protein) |
|  | -8.59 | RAC3 (residues 1-192) (from UniProt P60763 1-192) (natural protein) |
